B1: LINE1-full (parent)
chain: UACGUAGGUGGUUUUCCCCUGAUAGUGCUAAGGGGGCCUGGAAGUUUGGACUGGGCAGAGCUCAACACAGCGUGGCAAAGUGGCUGUGGCUAGACUGCCUCUCUGGAUUCCUCGUCACUCAGCAGGGCAUCUCUGAGAGAAAUGCC

Variants of: B1
Experiment: self-cleavage, relative activity (ratio to wild type); higher = more cleavage; in vitro, sequencing; the parent is a self-cleaving ribozyme

Point of comparison: UACGUAGGUGGUUUUCCCCUGAUAGUGCUAAGGGGGCCUGGAAGUUUGGACUGGGCUGAGCUCAACACAGCGUGGCGAAGUGGCUGUGGCUAGACUGCCUCUCUGGAUUCCUCGUCACUCAGCAGGGCAUCUCUGAGAGAAAUGCC [A57U A77G], self-cleavage 0.17. Against it:
- UACGUAGGUGGUUUUCCCCUGGUAGUGCUAAGGGGGCCUGGAAGUUUGGACUGGGCAGAGCUCAACACAGCGUGGCAAAGUGGCUGUGGCUAGACUGCCUCUCUGGAUUCCUCGUCACUCACCAGGGCAUCUCUGAGAGAAAUGCC [A22G G122C] — higher, 1.31
- UACGUAGGUGGUUUUCCCCUGAUAGUGCUAAGGGGGCCUGGAAGUUUGGACUGGGCAGAGCUCAACACAGCGUGGCGAAGUGGCUGUGGCUAGACUGCCUCUCUGGAUUCCUCGUCACUCAGCAGGGGAUCUCUGAGAGAAAUGCC [A77G C128G] — higher, 1.86
- UACGUAGGUGGUUUUCCCCUGAUAGUGCUAAGGGGGCCUGGAAGUUUGGACUGGGCAGAGCUCAACACAGCGUGGCAAAGUGGCUGUGGCUAGACUGCCUCUCUGGAUUCCUCGUCACUCAGCAGGGCACCUCUGAGAGGAAUGCC [U130C A140G] — higher, 1.49
- UACGUAGGUGGUUUUCCCCUGAUAGUGCUAAGGGGGCCUGGAAGUUUGGACUGGGCAGAGCUCAACACAGCGUGGCAAAGUGGCUGUGGCUAGACUGCCUCUCAGGAUUCCUCGUCACGCAGCAGGGCAUCUCUGAGAGAAAUGCC [U104A U119G] — higher, 0.64
- UACGUAGGUGGUUUUCCCUUGAUAGUGCUAAGGGGGCCUGGAAGUUUGGACUGGGCAGAGCACAACACAGCGUGGCAAAGUGGCUGUGGCUAGACUGCCUCUCUGGAUUCCUCGUCACUCAGCAGGGCAUCUCUGAGAGAAAUGCC [C19U U62A] — lower, 0.07
- UACGUAGGUGGUUUUCCCCAGAUAGUGCUAAGGGGGCCUGGAAGUUUGGACUGGGCAGAGCUCAACACAGCGAGGCAAAGUGGCUGUGGCUAGACUGCCUCUCUGGAUUCCUCGUCACUCAGCAGGGCAUCUCUGAGAGAAAUGCC [U20A U73A] — higher, 1.5
- UACGUAGGUGGUUUUCCCCUGAUAGUGCUAAGGGGGCCUAGGAGUUUGGACUGGGCAGAGCUCAACACAGCGUGGCAAAGUGGCUGUGGCUAGACUGCCUCUCUGGAUUCCUCGUCACUCAGCAGGGCAUCUCUGAGAGAAAUGCC [G40A A42G] — higher, 1.07
- UACGUAGGUGGUUUUCCCCUGAUAGUGCUAAGGGGGCCUGGAAGUUUGGACUGGGCAGAGCUCAACGCAGCGUGGCAAAGUGGCUGUGGCUAGACUGCCUCUCUGGAUUCCUCGUCACUCAGCAGGGCAUCUCUGAGAGAAACGCC [A67G U143C] — higher, 0.57
- UACGUAGGUGGUUUUCCCCUGAUAGUGCUAAGGGGGCCUGGAAGUUUGGGCUGGGCAGAGCUCAACACAGCGUGGCAAAGUGGCUGUGGCUAGACAGCCUCUCUGGAUUCCUCGUCACUCAGCAGGGCAUCUCUGAGAGAAAUGCC [A50G U96A] — lower, 0.04
- UACGUAGGUGGUUUUCCCCUGUUAGUGCUAAGGGGGCCUGGGAGUUUGGACUGGGCAGAGCUCAACACAGCGUGGCAAAGUGGCUGUGGCUAGACUGCCUCUCUGGAUUCCUCGUCACUCAGCAGGGCAUCUCUGAGAGAAAUGCC [A22U A42G] — higher, 1.54
- UACGUAGGUGGUUUUCCCCUGAUAGUGCUAAGGGGGCCUGGAAGUUUGGACUGGGCUGAGCUCAACACAGCGUGGCAAAGUGGCUGUGGCUAGACUGCCUCUCUGGAUUCCUCGUCACUCAGCAGGGCUUCUCUGAGAGAAAUGCC [A57U A129U] — lower, 0.11
- UACGUAGGUGGUUUUCCCCUGAUAGUGCUAAGUGGGCCUGGAAGUUUGGACUGGGCAGAGCUCUACACAGCGUGGCAAAGUGGCUGUGGCUAGACUGCCUCUCUGGAUUCCUCGUCACUCAGCAGGGCAUCUCUGAGAGAAAUGCC [G33U A64U] — higher, 0.41
- UACGUAGGUGGUUUUCCCCUGAUAGUGCUAAGGGGGCCUGGAAGUUUGGACUGGGCAGAGCUCAACACAGCGUGGCAAAGUGGCUGUGGCUAGACUGCCUCUCUGGAUUCCUCGUCACUCAGCAGGGCAUCUCUGAGGGAAGUGCC [A138G A142G] — higher, 1.39
- UACGUAGGUGGUUUUCCCCUGGUAGUGCUAAGGGGGCCUGGAAGUUUGGACUGGGCAGAGCUCAACACAGCGUGGCAAAGUAGCUGUGGCUAGACUGCCUCUCUGGAUUCCUCGUCACUCAGCAGGGCAUCUCUGAGAGAAAUGCC [A22G G82A] — higher, 1.94
- UACGUAGGUGGUUUUCCCCGGAUAGUGCUAAGGGGGCCUGGAAGUUUGGACUGGGCAGAGCUCAACACAGCGUGGCAAAGUGGCUGUGGCUAGACUGCCUCUCUGGAUUCCCCGUCACUCAGCAGGGCAUCUCUGAGAGAAAUGCC [U20G U112C] — higher, 0.76
- UACGUAGGUGGUUUUCCCCUGAUAGUGCUAAGGGGGCCUGGAAGUUUGGACUGGGCAGAGCUCAACACAGCGUGGCGAAGUGGCUGUGGCUAGACUGCCUCUCUGGAUUCCUCGUCACUCGGCAGGGCAUCUCUGAGAGAAAUGCC [A77G A121G] — higher, 1.69
- UACGUAGGUGGUUUUCCCCUGAUAGUGCUAAGGGGGCCUGGAAGUUUGGACUGGGCAGAGCUCAACACAGCGUGGCAAAGUGGCUGUGGCCAGACUGCCUCUCUGGAUUCCUCGUCACUCAGCAGGGCAUCUCUGAGAGAAAGGCC [U91C U143G] — higher, 0.62
- UACGUAGGUGGUUUUCCCCUGAUAGUGCUAAGGGGGCCUGGAAGUUUGGACUGGGCAGAGCUCAACACAGCGUAGCAAAGUGGCUGUGGCUAGACAGCCUCUCUGGAUUCCUCGUCACUCAGCAGGGCAUCUCUGAGAGAAAUGCC [G74A U96A] — lower, 0.07
- UACGUAGGUGGUUUUCCCCUGAUAGUGCUAAGGGGGCCUGGAAAUUUGGACUGGGCAGAGCUCAACACAGCGUGGCAAAGUGGCUGUGGCUAGACUGCCUCUCUGGAUUCCUCGUCACUCAGCAGGGCAUCUCUGAGAGAAAUGCC [G44A] — higher, 1.21

— the RNAGym collection of RNA variant scans (doi:10.7554/elife.90254)
